Data taken from the Immune Epitope Database (IEDB).
Blank lines part the entries; values can stand above or below the sequence they belong to.

Assays:
HLA-B*53:01 = assay: IEDB peptide-MHC binding, purified MHC/competitive/radioactivity; filed as Kd, often an IC50 or EC50 that approximates it; ≥ and ≤ were set here for values at or beyond the usual limits of such assays
HLA-B*35:01 = assay: as above
HLA-B*54:01 = assay: as above
HLA-B*07:02 = assay: as above
HLA-B*51:01 = assay: as above
HLA-A*02:17 = assay: as above
HLA-A*02:01 = assay: as above
HLA-A*02:06 = assay: as above
HLA-A*03:01 [1] = assay: IEDB peptide-MHC binding, purified MHC/competitive/fluorescence; filed as Kd, often an IC50 or EC50 that approximates it; ≥ and ≤ were set here for values at or beyond the usual limits of such assays
HLA-B*08:01 [2] = assay: IEDB peptide-MHC binding, purified MHC/competitive/radioactivity; filed as Kd, often an IC50 or EC50 that approximates it; ≥ and ≤ were set here for values at or beyond the usual limits of such assays; details: source organism: Dengue virus 1 Brazil/97-11/1997
HLA-B*15:01 [3] = assay: as above
HLA-A*23:01 = assay: as above; details: source organism: Dengue virus 3 Sri Lanka/1266/2000
HLA-A*24:02 = assay: as above; details: source organism: Dengue virus 3 Sri Lanka/1266/2000
HLA-A*68:02 = assay: as above; details: source organism: Dengue virus 4 Philippines/H241/1956
HLA-A*02:03 = assay: as above; details: source organism: Dengue virus 3 Martinique/1243/1999
HLA-B*08:01 [4] = assay: IEDB peptide-MHC binding, purified MHC/direct/fluorescence; filed as Kd, often an IC50 or EC50 that approximates it; ≥ and ≤ were set here for values at or beyond the usual limits of such assays; details: source organism: Mycobacterium tuberculosis str. Haarlem
HLA-B*57:01 = assay: as above; details: source organism: Mycobacterium tuberculosis str. Haarlem
HLA-B*40:01 = assay: as above; details: source organism: Mycobacterium tuberculosis str. Haarlem
HLA-A*11:01 = assay: as above; details: source organism: Mycobacterium tuberculosis str. Haarlem
HLA-B*44:02 = assay: as above; details: source organism: Mycobacterium tuberculosis str. Haarlem
HLA-A*01:01 = assay: as above; details: source organism: Mycobacterium tuberculosis str. Haarlem
HLA-B*27:05 = assay: as above; details: source organism: Mycobacterium tuberculosis str. Haarlem
HLA-B*46:01 = assay: as above
HLA-B*18:01 = assay: as above; details: source organism: Mycobacterium tuberculosis str. Haarlem
HLA-A*03:01 [5] = assay: as above; details: source organism: Mycobacterium tuberculosis str. Haarlem
HLA-A*31:01 = assay: as above; details: source organism: Mycobacterium tuberculosis str. Haarlem
HLA-A*69:01 = assay: as above; details: source organism: Mycobacterium tuberculosis str. Haarlem
HLA-B*15:01 [6] = assay: as above; details: source organism: Lassa virus Josiah
[7] = source organism: Vaccinia virus WR
[8] = source organism: Dengue virus 2 Jamaica/1409/1983
[9] = source organism: Dengue virus 1 Singapore/S275/1990
[10] = source organism: Dengue virus 4 Philippines/H241/1956
[11] = source organism: Dengue virus 3 Sri Lanka/1266/2000
[12] = source organism: Mammarenavirus lassaense
[13] = source organism: Dengue virus 3 China/80-2/1980

Sequence: DPTFQLLNMI
- Kd (HLA-B*53:01; [7]): 12600 nM
- Kd (HLA-B*35:01; [7]): ≥ 69900 nM
- Kd (HLA-B*54:01; [7]): ≥ 27100 nM
- Kd (HLA-B*07:02; [7]): ≥ 69600 nM
- Kd (HLA-B*51:01; [7]): 4990 nM

Sequence: SIILEFFLIV
- Kd (HLA-A*02:17; [8]): 4020 nM
- Kd (HLA-A*02:01; [8]): 29.9 nM
- Kd (HLA-A*02:06; [8]): 43.7 nM

- Kd (HLA-A*03:01 [1]; source organism: Escherichia coli O139:H28 str. E24377A): 56.7 nM
Sequence: ALALFDLLK

Sequence: LLMLVTPSM
- Kd (HLA-B*08:01 [2]): 1080 nM
- Kd (HLA-A*02:17; [9]): 24.3 nM
- Kd (HLA-A*02:01; [9]): 7.86 nM
- Kd (HLA-B*15:01 [3]; source organism: Dengue virus 1 Brazil/97-11/1997): 2.26 nM

- Kd (HLA-A*03:01 [1]; source organism: Escherichia coli O157:H7 str. EDL933): 25.1 nM
Sequence: KMARAGLGH

Sequence: VPDIKLDAVL
- Kd (HLA-B*53:01; [7]): 134 nM
- Kd (HLA-B*35:01; [7]): 140 nM
- Kd (HLA-B*54:01; [7]): 1620 nM
- Kd (HLA-B*07:02; [7]): 4.94 nM
- Kd (HLA-B*51:01; [7]): 335 nM

Sequence: KPEVRIPVDL
- Kd (HLA-B*53:01; [7]): ≥ 42400 nM
- Kd (HLA-B*35:01; [7]): ≥ 69900 nM
- Kd (HLA-B*54:01; [7]): 14300 nM
- Kd (HLA-B*07:02; [7]): 235 nM
- Kd (HLA-B*51:01; [7]): ≥ 69600 nM

Sequence: LLANILSEH
- Kd (HLA-A*03:01 [1]; source organism: Vibrio cholerae 2740-80): 525 nM

Sequence: ILIGFLVLWI
- Kd (HLA-A*02:17; [10]): 2990 nM
- Kd (HLA-A*02:01; [10]): 97.1 nM

Sequence: MMILPAALAF
- Kd (HLA-A*23:01): 119 nM
- Kd (HLA-B*53:01; [11]): 6480 nM
- Kd (HLA-A*24:02): 916 nM
- Kd (HLA-B*35:01; [11]): 1490 nM
- Kd (HLA-B*15:01 [3]; [11]): 2.41 nM

Sequence: DPRLVAEHRF
- Kd (HLA-B*53:01; [7]): 1210 nM
- Kd (HLA-B*35:01; [7]): 11700 nM
- Kd (HLA-B*54:01; [7]): ≥ 69900 nM
- Kd (HLA-B*07:02; [7]): ≥ 21400 nM
- Kd (HLA-B*51:01; [7]): ≥ 69600 nM

Sequence: FPYVMGDVEL
- Kd (HLA-B*53:01; [12]): 46.9 nM
- Kd (HLA-B*35:01; [12]): 11.1 nM
- Kd (HLA-B*54:01; [12]): 487 nM
- Kd (HLA-B*07:02; [12]): 930 nM
- Kd (HLA-B*51:01; [12]): 304 nM

Sequence: LLLLGLMILL
- Kd (HLA-A*02:17; [13]): 94.9 nM
- Kd (HLA-A*02:01; [13]): 11.7 nM
- Kd (HLA-A*02:06; source organism: Dengue virus 3 Martinique/1243/1999): 21.5 nM

Sequence: TSMAMTCIAV
- Kd (HLA-A*02:17; [10]): 62.5 nM
- Kd (HLA-A*68:02): 1.66 nM
- Kd (HLA-A*02:01; [10]): 12.3 nM
- Kd (HLA-A*02:06; [10]): 9.2 nM

Sequence: KLTDWDFVV
- Kd (HLA-A*02:17; [10]): 744 nM
- Kd (HLA-A*02:01; source organism: dengue virus type 4): 61 nM
- Kd (HLA-A*02:06; [10]): 2.33 nM

Sequence: VMAVGLVSI
- Kd (HLA-A*02:03): 1.11 nM
- Kd (HLA-A*02:17; [13]): 3200 nM

Sequence: IMANRAQVL
- Kd (HLA-B*08:01 [4]): 332 nM
- Kd (HLA-B*57:01): ≥ 20000 nM
- Kd (HLA-B*40:01): ≥ 20000 nM
- Kd (HLA-A*11:01): ≥ 20000 nM
- Kd (HLA-B*44:02): ≥ 20000 nM
- Kd (HLA-A*01:01): ≥ 20000 nM
- Kd (HLA-B*27:05): ≥ 20000 nM
- Kd (HLA-B*46:01; source organism: Mycobacterium tuberculosis str. Haarlem): ≥ 20000 nM
- Kd (HLA-B*18:01): ≥ 20000 nM
- Kd (HLA-A*03:01 [5]): ≥ 20000 nM
- Kd (HLA-A*31:01): ≥ 20000 nM
- Kd (HLA-A*69:01): ≥ 20000 nM

Sequence: GLVECNNHY
- Kd (HLA-B*46:01; source organism: Lassa virus Josiah): ≥ 20000 nM
- Kd (HLA-B*15:01 [6]): 182 nM
